Holding throughout (experiment): ProtoArray, GST-treated control array;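 note: human protein microarray (about 9500 recombinant proteins) incubated overnight with GST alone plus SAM cofactor as the negative control for G9a SET domain methylation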
In experiment [1] the target is T1, HIC2-Hypermethylated in cancer 2 protein (human, UniProt Q96JB3 1-615, limits assumed).
T1 sequence (looked up): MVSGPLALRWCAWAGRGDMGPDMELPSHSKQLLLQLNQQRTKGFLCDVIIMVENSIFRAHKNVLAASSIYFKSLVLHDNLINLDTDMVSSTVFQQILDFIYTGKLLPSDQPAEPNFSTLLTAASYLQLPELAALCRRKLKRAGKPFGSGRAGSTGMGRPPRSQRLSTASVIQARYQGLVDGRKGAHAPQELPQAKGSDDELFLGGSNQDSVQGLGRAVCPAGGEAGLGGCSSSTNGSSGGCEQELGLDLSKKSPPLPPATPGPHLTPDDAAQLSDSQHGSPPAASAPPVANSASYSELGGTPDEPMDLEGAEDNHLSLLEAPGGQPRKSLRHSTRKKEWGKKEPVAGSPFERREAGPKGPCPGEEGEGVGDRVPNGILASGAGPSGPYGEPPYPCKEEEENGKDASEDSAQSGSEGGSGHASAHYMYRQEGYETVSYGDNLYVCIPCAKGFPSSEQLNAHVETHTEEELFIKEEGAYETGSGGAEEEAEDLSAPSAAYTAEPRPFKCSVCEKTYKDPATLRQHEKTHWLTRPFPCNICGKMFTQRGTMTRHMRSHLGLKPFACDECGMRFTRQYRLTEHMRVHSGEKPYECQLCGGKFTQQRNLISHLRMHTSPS

For experiment [2], the target named is T2, RASSF4-Ras association (RaIGDS/AF-6) domain family 4 (RASSF4) (human, UniProt Q9H2L5 1-321, limits assumed).
T2 sequence (looked up): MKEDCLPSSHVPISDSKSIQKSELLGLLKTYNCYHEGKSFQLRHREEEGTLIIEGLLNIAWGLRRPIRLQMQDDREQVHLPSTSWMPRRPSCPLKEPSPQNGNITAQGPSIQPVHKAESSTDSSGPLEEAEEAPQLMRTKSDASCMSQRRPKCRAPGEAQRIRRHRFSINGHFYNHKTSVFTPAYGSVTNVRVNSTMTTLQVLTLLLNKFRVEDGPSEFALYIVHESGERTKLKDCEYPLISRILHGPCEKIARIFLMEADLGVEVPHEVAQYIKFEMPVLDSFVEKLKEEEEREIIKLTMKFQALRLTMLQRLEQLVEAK

For experiment [3], the target named is T3, LTC4S-Leukotriene C4 synthase (human, UniProt Q16873 1-150).
T3 sequence (looked up): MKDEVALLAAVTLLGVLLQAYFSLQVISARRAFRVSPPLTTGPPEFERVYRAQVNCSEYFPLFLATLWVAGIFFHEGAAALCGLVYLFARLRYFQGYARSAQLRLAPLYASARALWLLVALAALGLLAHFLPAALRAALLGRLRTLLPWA

Experiment [4] concerns the target CDC2-cell division cycle 2, G1 to S and G2 to M (CDC2), transcript variant 1 (human, UniProt P06493 1-297).
The target of experiment [5] is T4, CDK5RAP3-CDK5 regulatory subunit-associated protein 3 (human, UniProt Q96JB5 1-506, limits assumed).
T4 sequence (looked up): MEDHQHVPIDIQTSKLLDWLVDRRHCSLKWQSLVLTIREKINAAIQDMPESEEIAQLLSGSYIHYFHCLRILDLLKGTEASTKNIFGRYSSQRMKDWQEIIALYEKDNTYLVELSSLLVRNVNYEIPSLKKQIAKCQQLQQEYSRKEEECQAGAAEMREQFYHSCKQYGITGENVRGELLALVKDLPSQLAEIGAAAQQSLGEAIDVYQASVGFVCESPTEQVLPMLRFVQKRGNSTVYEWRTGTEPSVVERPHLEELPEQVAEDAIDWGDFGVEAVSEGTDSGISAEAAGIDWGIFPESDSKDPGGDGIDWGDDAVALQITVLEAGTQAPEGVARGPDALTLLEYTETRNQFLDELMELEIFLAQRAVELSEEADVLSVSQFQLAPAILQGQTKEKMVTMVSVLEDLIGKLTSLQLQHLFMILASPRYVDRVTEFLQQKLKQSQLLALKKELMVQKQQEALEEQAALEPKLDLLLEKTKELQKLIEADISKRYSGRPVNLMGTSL

The target in experiment [6] is T5, MAGEH1-melanoma antigen family H, 1 (MAGEH1) (human, UniProt Q9H213 1-219).
T5 sequence (looked up): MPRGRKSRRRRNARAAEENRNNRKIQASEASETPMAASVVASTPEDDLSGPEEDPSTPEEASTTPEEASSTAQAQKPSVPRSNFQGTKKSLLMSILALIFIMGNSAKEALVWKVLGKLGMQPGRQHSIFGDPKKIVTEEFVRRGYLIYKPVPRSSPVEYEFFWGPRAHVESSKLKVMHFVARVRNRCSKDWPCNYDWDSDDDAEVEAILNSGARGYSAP

In experiment [7] the target is T6, GPX1-glutathione peroxidase 1 (GPX1) (human, UniProt P07203 1-203, limits assumed).
T6 sequence (looked up): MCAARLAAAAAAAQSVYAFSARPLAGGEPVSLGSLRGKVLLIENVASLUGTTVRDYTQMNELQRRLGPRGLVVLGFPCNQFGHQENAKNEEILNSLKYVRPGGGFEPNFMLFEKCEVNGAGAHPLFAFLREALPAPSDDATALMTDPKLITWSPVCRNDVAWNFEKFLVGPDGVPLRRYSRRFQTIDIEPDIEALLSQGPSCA

Experiment [8] deals with T7, LRRC20-leucine rich repeat containing 20 (LRRC20) (human, UniProt Q8TCA0 1-184, limits assumed).
T7 sequence (looked up): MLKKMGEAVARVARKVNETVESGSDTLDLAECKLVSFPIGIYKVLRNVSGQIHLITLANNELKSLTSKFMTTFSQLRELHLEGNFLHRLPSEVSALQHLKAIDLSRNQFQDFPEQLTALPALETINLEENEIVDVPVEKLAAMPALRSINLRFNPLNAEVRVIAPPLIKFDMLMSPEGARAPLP

Chain of CDC2-cell division cycle 2, G1 to S and G2 to M (CDC2), transcript variant 1 (P06493 whole entry, change not shown): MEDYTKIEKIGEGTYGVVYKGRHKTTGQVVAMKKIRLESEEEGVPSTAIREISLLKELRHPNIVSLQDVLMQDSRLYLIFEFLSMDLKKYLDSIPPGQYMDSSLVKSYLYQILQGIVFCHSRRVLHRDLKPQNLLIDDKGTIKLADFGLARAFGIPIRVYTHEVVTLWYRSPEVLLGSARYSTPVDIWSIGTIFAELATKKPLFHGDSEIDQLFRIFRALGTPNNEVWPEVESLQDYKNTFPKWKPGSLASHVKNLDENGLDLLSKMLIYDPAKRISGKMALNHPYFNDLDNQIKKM

B1: 3× Flag-3×MBT (designed binder)
chain: EEWSSSQPATGEKKECWSWESYLEEQKAITAPVSLFQDSQAVTHNKNGFKLGMKLEGIDPQHPSMYFILTVAEVCGYRLRLHFDGYSECHDFWVNANSPDIHPAGWFEKTGHKLQPPKGYKEEEFSWSQYLRSTRAQAAPKHLFVSQSHSPPPLGFQVGMKLEAVDRMNPSLVCVASVTDVVDSRFLVHFDNWDDTYDYWCDPSSPYIHPVGWCQKQGKPLTPPQDYPDPDNFCWEKYLEETGASAVPTWAFKVRPPHSFLVNMKLEAVDRRNPALIRVASVEDVEDHRIKIHFDGWSHGYDFWIDADHPDIHPAGWCSKTGHPLQPPLGPREPSSASPGG
notes: also called Flag-tagged 3×MBT; 3xFlag-3xMBT; not shown: made by PreScission cleavage of GST-3× Flag-3×MBT
For the molecule B1, the “GST Average SNR” value in experiment [1] is 0.588; in experiment [2], 1.16; in experiment [3] it was 1.21; in experiment [4], -0.696; in experiment [5] it was -0.34; in experiment [6] it was 1.11. Besides, the “GST Average SNR” value in experiment [7] amounted to 1.22; in experiment [8], 1.4.

Source of the values: patent US20140274782A1 (Stanford University, published 2014).
